Laboratory results reported in patent publication US20080233097A1, “Phosphorylation Site Of Mitogen-Activated Protein Kinases, Modified Proteins And Applications” (UNIVERSIDAD AUTONOMA DE MADRID, priority 2005, published 2008).

Key:
MKK6CAM = assay: p38 phosphorylation by MKK6CAM in vitro; assay type: biochemical; details: 150 nM fusion protein, 40 ng MKK6CAM
Procedure: The reactions were carried out at 30° C. for 30 minutes and the proteins were separated in 8% SDS-PAGE gels. The amount of p38 in each point was visualized by Coomassie Blue staining. Then the radioactivity in each p38 isoform was determined. […] FIG. 11B: In these same assays, the ability of MKK6CAM-activated GST-p38WT, GST-p38T123A and GST-p38T123D to phosphorylate 2 μg of GST-ATF2 is evaluated. The representative autoradiography (^32P) of the total GST-ATF2 control (Coomassie Blue) is attached.
As in the previous cases, the reactions were left to take place at 30° C. for 30 minutes and the proteins were resolved in 8% SDS-PAGE gels. With the purpose of assuring the inclusion of identical amounts of protein, they were visualized in the gel by Coomassie Blue staining. Subsequently, the radioactivity incorporated in each p38 isoform was determined.

GRK2 = target: T1, GRK2 (Bos taurus, UniProt P21146); assay: phosphorylation of p38 mutants and truncated proteins by GRK2 in vitro; assay type: biochemical; details: GST fusion proteins, 30 minutes at 30° C.
T1 construct: made in house; host or cells: Sf9 cells (baculovirus)
T1 sequence (P21146 1-689): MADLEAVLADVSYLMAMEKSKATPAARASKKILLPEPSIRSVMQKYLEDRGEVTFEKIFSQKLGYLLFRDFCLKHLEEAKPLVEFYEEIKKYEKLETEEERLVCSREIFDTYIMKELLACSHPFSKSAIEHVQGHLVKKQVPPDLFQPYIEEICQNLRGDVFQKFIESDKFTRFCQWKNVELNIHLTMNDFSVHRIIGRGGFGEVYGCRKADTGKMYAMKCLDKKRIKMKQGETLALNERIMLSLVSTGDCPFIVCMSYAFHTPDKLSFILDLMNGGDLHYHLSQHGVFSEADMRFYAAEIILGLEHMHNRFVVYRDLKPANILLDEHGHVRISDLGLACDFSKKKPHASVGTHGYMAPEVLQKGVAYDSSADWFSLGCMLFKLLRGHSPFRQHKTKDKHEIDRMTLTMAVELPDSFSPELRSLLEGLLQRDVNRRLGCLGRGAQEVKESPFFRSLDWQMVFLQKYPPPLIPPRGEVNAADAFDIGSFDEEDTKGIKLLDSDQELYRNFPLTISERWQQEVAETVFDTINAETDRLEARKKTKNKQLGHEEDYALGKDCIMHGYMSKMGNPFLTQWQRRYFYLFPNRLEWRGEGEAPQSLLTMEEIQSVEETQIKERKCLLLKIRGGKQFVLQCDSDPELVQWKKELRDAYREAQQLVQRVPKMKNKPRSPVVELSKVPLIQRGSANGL
Procedure: FIG. 6A: Proteins fused to GST (black rectangle in the protein schemes) were purified from bacteria transformed with the plasmids pGEX2T-p38α, pGEX4T-Mxi2 and pGEX4T-Mxi2Δ17: p38α, Mxi2 and Mxi2Δ17. The […] isoforms used as C-terminal truncated mutants for trying to limit the GRK2 phosphorylation site. […] Heparin (150 nM) was included as a specific GRK2 inhibitor. The reactions were stopped by adding SDS breaking buffer. The samples were resolved in 8% SDS-PAGE. For the purpose of assuring the inclusion of identical amounts of protein, they were first visualized in the gel by Coomassie Brilliant Blue (CBB) staining. Then the gel was dried and the radioactivity incorporated to the proteins (^32P) was detected. FIG. 6B: The truncated GST-280-360p38 protein, corresponding to the last 80 p38α amino acids, was generated by means of the Invitrogen Gateway system. Phosphorylation assays were carried out with Mxi2Δ17 as a p38 N-terminal, 280-360 p38 as C-terminal and with whole p38α in the same conditions as described in section A. The phosphorylation was detected by autoradiography (^32P) and controls of the amount of protein used in the assays were carried out concomitantly by Western blot with the anti-GST antibody. The presence of the GST-280-360p38 protein, which is not phosphorylated, is clearly observed. STD, mobility of standard molecular weight proteins.
FIG. 9A: p38T123A and p38T123D proteins, fused to GST, were made by directed mutagenesis in the prokaryotic expression plasmids pGEX2T. The ability of the recombinant GST-p38T123A and GST-p38T123D proteins to be GRK2 substrates in comparison to the wild GST-p38WT protein and at the final concentrations indicated in the Figure was assayed. The upper panels represent the obtained phosphorylation (32 P) and the lower panels show, by anti-p38N WB, the amount of recombinant protein used in the assays. […]
Heparin (150 nM) was included as a specific GRK2 inhibitor. […] Subsequently, the gel was dried and the radioactivity incorporated to the proteins (^32P) was detected. […]

B1: p38T123D: p38α mutant; aspartic acid mimics the constitutively phosphorylated form of threonine 123 (protein, UniProt P47811 2-360, looked up, variant T123D)
Mitogen-activated protein …: SQERPTFYRQELNKTIWEVPERYQNLSPVGSGAYGSVCAAFDTKTGHRVAVKKLSRPFQSIIHAKRTYRELRLLKHMKHENVIGLLDVFTPARSLEEFNDVYLVTHLMGADLNNIVKCQKLDDDHVQFLIYQILRGLKYIHSADIIHRDLKPSNLAVNEDCELKILDFGLARHTDDEMTGYVATRWYRAPEIMLNWMHYNQTVDIWSVGCIMAELLTGRTLFPGTDHIDQLKLILRLVGTPGAELLKKISSESARNYIQSLAQMPKMNFANVFIGANPLAVDLLEKMLVLDSDKRITAAQALAHAYFAQYHDPDDEPVADPYDQSFESRDLLIDEWKSLTYDEVISFVPPPLDQEEMES
modifications: GST or Flag tag in some forms
For B1, the “phosphorylation by MKK6CAM (32P)” value (MKK6CAM) was “much worse MKK6CAM substrate than the other two p38” and the “ability to be a GRK2 substrate (32P incorporation)” value (GRK2) was “none of the two mutant is a GRK2 substrate”.
